± gives the standard deviation of the averaged measurements.

Experimental findings from the supplement of paper PMC10126150 are described below.

The data set deals with ATP. Kind of data set: switch fluorescence ratio, 500 uM ATP over buffer (Cy3 cluster intensity, sum of 5 cycles each) (fold (ratio)); higher = stronger signal-on switching upon ATP binding; sequences stand for … in TCGTCGGCAGCGTCAGATGTGTATAAGAGACAGTTTTTTTTTTTTTTTTTTTTTTTTT…TC. Conditions: aptamer strand: ATP DNA aptamer (quencher-CACCTGGGGGAGTATTGCGGAGGAAGG + anchor), 100 nM annealed; ATP concentration: 500 uM. Summed up:
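For every switch-domain sequence, the fluorescence ratio is the mean of per-cluster values, each being summed target-cycle Cy3 intensity over summed buffer-cycle Cy3 intensity. Clusters outside 100-1000 RFU were excluded. On a modified Illumina MiSeq flow-cell, the Cy3-labelled switching-strand clusters were annealed to 100 nM quencher-labelled ATP aptamer, imaged in selection buffer and then after 15 min with 500 uM ATP at 22 °C. Five such cycles were run, with NaOH stripping and re-annealing between them.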
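Further: ATP exposure 15 min at 22 °C before imaging.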

GACTTTTATT: the switch fluorescence ratio amounted to 0.989 ± 0.017.

GACTTTTGTA: the switch fluorescence ratio was 0.9812 ± 0.0045.

With GACTTTTTGC, the switch fluorescence ratio was 0.933 ± 0.055.

As for GACTTTTTTC, the switch fluorescence ratio worked out at 0.9748 ± 0.0053.

As for GAGAAAATCG, the switch fluorescence ratio stood at 1 ± 0.043.

GAGAAAATGG: the switch fluorescence ratio stood at 1.003 ± 0.0039.

With GAGAAATGGG, the switch fluorescence ratio stood at 1.07 ± 0.038.

In the case of GAGAAATTCC, the switch fluorescence ratio stood at 1.07 ± 0.021.

In the case of GAGAACAGTG, the switch fluorescence ratio was 1.02 ± 0.041.

Regarding GAGAACGAGG, the switch fluorescence ratio was found to be 0.983 ± 0.023.

For the sequence GAGAAGAGGC, the switch fluorescence ratio is 1.13 ± 0.023.

GAGAAGCGGT: the switch fluorescence ratio was determined as 1.004 ± 0.008.

On to GAGAAGCTAT, for which the switch fluorescence ratio worked out at 0.987 ± 0.015.

Regarding GAGAAGGGCA, the switch fluorescence ratio came out at 1.02 ± 0.05.

GAGAAGTTAG: the switch fluorescence ratio was 1.02 ± 0.023.

Turning to GAGAAGTTGA, the switch fluorescence ratio worked out at 1 ± 0.02.

Turning to GAGAATTAGG, the switch fluorescence ratio worked out at 0.964 ± 0.039.

For GAGACATTAC, the switch fluorescence ratio was determined as 1.61 ± 0.04.

With GAGACCAATC, the switch fluorescence ratio was found to be 1.023 ± 0.008.

GAGACCCTAT: the switch fluorescence ratio came to 1.029 ± 0.0074.

Take GAGACGACCA: the switch fluorescence ratio amounted to 1.15 ± 0.029.

On to GAGACGCTTA, for which the switch fluorescence ratio came out at 1.069 ± 0.0064.

On to GAGACGTTTT, for which the switch fluorescence ratio was 0.97 ± 0.015.

Turning to GAGAGAGGGA, the switch fluorescence ratio came to 1.01 ± 0.034.

For GAGAGATCG, the switch fluorescence ratio was 0.982 ± 0.021.

For the sequence GAGAGATTAT, the switch fluorescence ratio was found to be 0.9787 ± 0.002.

As for GAGAGCCGTC, the switch fluorescence ratio is 1.08 ± 0.13.

Take GAGAGCGAGT: the switch fluorescence ratio was determined as 1.03 ± 0.036.

Turning to GAGAGCTATA, the switch fluorescence ratio is 1.07 ± 0.044.

For the sequence GAGAGCTCAC, the switch fluorescence ratio turned out to be 1.01 ± 0.021.

Turning to GAGAGGACAT, the switch fluorescence ratio is 0.996 ± 0.011.

GAGAGGGAAG: the switch fluorescence ratio was found to be 1.004 ± 0.0077.

On to GAGAGGGCAG, for which the switch fluorescence ratio amounted to 0.9869 ± 0.0072.

As to GAGAGGGCCT, the switch fluorescence ratio was found to be 0.985 ± 0.038.

GAGAGGTTCG: the switch fluorescence ratio amounted to 0.962 ± 0.012.

Take GAGAGGTTTG: the switch fluorescence ratio came to 0.9818 ± 0.008.

Consider GAGAGTAGAG, for which the switch fluorescence ratio was determined as 0.992 ± 0.034.

As to GAGAGTATAT, the switch fluorescence ratio is 1.01 ± 0.012.

For the sequence GAGAGTGACT, the switch fluorescence ratio is 0.969 ± 0.0083.

On to GAGAGTGGGC, for which the switch fluorescence ratio came out at 1 ± 0.043.

Take GAGAGTGGTT: the switch fluorescence ratio turned out to be 0.998 ± 0.012.

With GAGAGTTAAG, the switch fluorescence ratio is 0.9677 ± 0.0074.

For the sequence GAGATAGAGG, the switch fluorescence ratio is 1.006 ± 0.0087.

As to GAGATAGGGG, the switch fluorescence ratio stood at 0.994 ± 0.016.

For GAGATAGGGT, the switch fluorescence ratio worked out at 1.03 ± 0.013.

For the sequence GAGATCCATG, the switch fluorescence ratio worked out at 1.01 ± 0.038.

Turning to GAGATCGGGG, the switch fluorescence ratio came out at 1 ± 0.03.

With GAGATCGTAT, the switch fluorescence ratio worked out at 0.991 ± 0.017.

Regarding GAGATCGTGC, the switch fluorescence ratio turned out to be 0.96 ± 0.018.

With GAGATGGAAG, the switch fluorescence ratio is 0.993 ± 0.018.

On to GAGATGGGCA, for which the switch fluorescence ratio was 1.01 ± 0.06.

Consider GAGATGGTTT, for which the switch fluorescence ratio amounted to 0.997 ± 0.024.

Consider GAGATGTTTA, for which the switch fluorescence ratio came to 0.987 ± 0.029.

Take GAGATTAATT: the switch fluorescence ratio came out at 0.967 ± 0.016.

With GAGATTCGCC, the switch fluorescence ratio came to 1.02 ± 0.054.

In the case of GAGATTGCAG, the switch fluorescence ratio stood at 0.974 ± 0.069.

Take GAGATTGCGC: the switch fluorescence ratio came out at 1.02 ± 0.046.

Take GAGATTGGAG: the switch fluorescence ratio is 0.9892 ± 0.0044.

Regarding GAGCAGGGGG, the switch fluorescence ratio was determined as 1.01 ± 0.042.

Consider GAGCATAGTT, for which the switch fluorescence ratio came out at 1.03 ± 0.014.

Take GAGCATGGGA: the switch fluorescence ratio stood at 1.02 ± 0.012.

For GAGCCATTTT, the switch fluorescence ratio was determined as 0.991 ± 0.041.

Turning to GAGCCGGGTA, the switch fluorescence ratio was 0.9982 ± 0.0063.

As for GAGCCTTACT, the switch fluorescence ratio stood at 1.38 ± 0.26.

Take GAGCGAAAGG: the switch fluorescence ratio came out at 0.991 ± 0.025.

GAGCGAGCTC: the switch fluorescence ratio was 0.988 ± 0.021.

Regarding GAGCGGCTTC, the switch fluorescence ratio is 1.027 ± 0.0097.

As for GAGCGGGGGG, the switch fluorescence ratio came out at 0.969 ± 0.022.

For GAGCGGGGTG, the switch fluorescence ratio came out at 1 ± 0.021.

For GAGCGTAGGG, the switch fluorescence ratio was found to be 0.9537 ± 0.0089.

For GAGCGTCACG, the switch fluorescence ratio is 1.006 ± 0.0055.

For GAGCTAAGTT, the switch fluorescence ratio was determined as 0.992 ± 0.012.

For the sequence GAGCTCTTAT, the switch fluorescence ratio was 1 ± 0.038.

Take GAGCTGCGGG: the switch fluorescence ratio was 1.002 ± 0.0021.

For the sequence GAGCTGGGCG, the switch fluorescence ratio amounted to 0.969 ± 0.13.

Turning to GAGCTGGGTC, the switch fluorescence ratio amounted to 1.02 ± 0.071.

GAGCTGTGGG: the switch fluorescence ratio stood at 0.971 ± 0.039.

For the sequence GAGCTTGTGG, the switch fluorescence ratio is 1.03 ± 0.015.

GAGGAAAAGT: the switch fluorescence ratio was 0.997 ± 0.051.

For the sequence GAGGAAAGCA, the switch fluorescence ratio worked out at 0.9815 ± 0.0056.

Take GAGGAAATCA: the switch fluorescence ratio worked out at 0.9877 ± 0.008.

For the sequence GAGGAGCTGG, the switch fluorescence ratio worked out at 0.986 ± 0.051.

As for GAGGAGCTGT, the switch fluorescence ratio was found to be 0.999 ± 0.026.

For GAGGAGGAAT, the switch fluorescence ratio came to 1.01 ± 0.017.

For GAGGAGGGGT, the switch fluorescence ratio came to 0.989 ± 0.039.

For GAGGATAGGG, the switch fluorescence ratio was 0.9768 ± 0.0037.

On to GAGGATAGGT, for which the switch fluorescence ratio worked out at 0.98 ± 0.011.

For GAGGATGGCA, the switch fluorescence ratio came out at 0.9807 ± 0.0061.

For GAGGATTCAT, the switch fluorescence ratio was 1.04 ± 0.085.

Regarding GAGGATTTCA, the switch fluorescence ratio is 0.99698 ± 0.00049.

On to GAGGCATTGT, for which the switch fluorescence ratio turned out to be 1.05 ± 0.017.

With GAGGCGACTG, the switch fluorescence ratio was found to be 1.03 ± 0.031.

In the case of GAGGCTACTG, the switch fluorescence ratio worked out at 0.9901 ± 0.0082.

Turning to GAGGCTAGTT, the switch fluorescence ratio was determined as 0.9936 ± 0.0047.

As for GAGGCTGGGT, the switch fluorescence ratio stood at 0.988 ± 0.0081.

Turning to GAGGGAAATG, the switch fluorescence ratio is 0.997 ± 0.098.

Regarding GAGGGAACAG, the switch fluorescence ratio came out at 1.01 ± 0.013.

Regarding GAGGGACAAT, the switch fluorescence ratio is 0.9882 ± 0.0066.

For the sequence GAGGGACCGT, the switch fluorescence ratio is 0.995 ± 0.025.

As for GAGGGACGAG, the switch fluorescence ratio worked out at 1.05 ± 0.015.

GAGGGACTGT: the switch fluorescence ratio was 0.972 ± 0.026.

Regarding GAGGGATAGC, the switch fluorescence ratio was determined as 0.991 ± 0.025.

Regarding GAGGGCAGAC, the switch fluorescence ratio is 1.24 ± 0.075.

For GAGGGCCTTT, the switch fluorescence ratio was 0.968 ± 0.048.

As for GAGGGCGTCA, the switch fluorescence ratio came out at 0.995 ± 0.027.

GAGGGGAACT: the switch fluorescence ratio came to 0.995 ± 0.021.

Turning to GAGGGGAAGA, the switch fluorescence ratio came out at 0.998 ± 0.031.

Take GAGGGGAGGA: the switch fluorescence ratio was determined as 1.04 ± 0.014.

Take GAGGGGAGTA: the switch fluorescence ratio stood at 1 ± 0.033.

Consider GAGGGGATAT, for which the switch fluorescence ratio is 1.38 ± 0.59.

As to GAGGGGATCG, the switch fluorescence ratio stood at 0.967 ± 0.015.

As to GAGGGGATGA, the switch fluorescence ratio amounted to 1.01 ± 0.031.

Regarding GAGGGGCCTC, the switch fluorescence ratio worked out at 1.03 ± 0.037.

On to GAGGGGGAAA, for which the switch fluorescence ratio came out at 1.02 ± 0.031.

GAGGGGGAAG: the switch fluorescence ratio stood at 1 ± 0.049.

As to GAGGGGGGTG, the switch fluorescence ratio is 1 ± 0.028.

As for GAGGGGGTCC, the switch fluorescence ratio came to 1.03 ± 0.069.

As for GAGGGGTATC, the switch fluorescence ratio amounted to 0.96 ± 0.045.

On to GAGGGGTTAC, for which the switch fluorescence ratio worked out at 1.01 ± 0.05.

Regarding GAGGGGTTGC, the switch fluorescence ratio is 1.09 ± 0.047.
